These results are taken from PMC3834327, “N ^6-Substituted AMPs Inhibit Mammalian Deoxynucleotide N-Hydrolase DNPH1” (PLoS ONE, 2013).

Substrate in this data set: Nc1nc2c(ncn2[C@H]2C[C@H](O)[C@@H](COP(=O)(O)O)O2)c(=O)[nH]1
Put plainly: purified protein, by the assay type. The following applies: other: substrate of human DNPH1; double reciprocal plots, five concentrations; pH 7.0.

B1: human DNPH1 (Homo sapiens) (protein)
chain: MAAAMVPGRSESWERGEPGRPALYFCGSIRGGREDRTLYERIVSRLRRFGTVLTEHVAAAELGARGEEAAGGDRLIHEQDLEWLQQADVVVAEVTQPSLGVGYELGRAVAFNKRILCLFRPQSGRVLSAMIRGAADGSRFQVWDYEEGEVEALLDRYFEADPPGQVAASPDPTT
For B1, the Km came out at 57 ± 12 µM, the kcat stood at 0.002 s⁻¹ and the kcat/Km was 35 M⁻¹ s⁻¹.
